Source: patent US11858972B2, “Micropeptides and uses thereof” (FUNDACIÓ PRIVADA INSTITUT D'INVESTIGACIÓ ONCOLÒGICA DE VALL …, priority 2018, dated 2024)

Key:
[1] = test system: EMT regulators and adhesion factors in human primary fibroblasts (IMR90); assay: EMT related gene expression by qPCR in IMR90; assay type: cell-based; details: vs empty vector
Text: (§1) FIG. 15. Expression of the micropeptide of SEQ ID NO: 2 induces loss of mesenchymal identity in IMR90 (A), MIA PaCa-2 (B) and BxPC-3 (C) cell lines. mRNA levels of the indicated genes measured by qPCR. Values are relative to cells expressing the empty vector as a control. *P<0.05, **P<0.01, ***P<0.001 using Student's t-test for statistics. Error bars represent standard error of n=3 technical replicates.
(§2) Total RNA was extracted with Trizol® and treated with TURBO™ DNase following provider's recommendations. 1 μg of RNA was retrotranscribed using iScript™ cDNA Synthesis Kit (BioRad). Gene expression was analysed by quantitative real time PCR using PowerUp SYBR Green Master Mix (Thermo Fisher Scientific) in the 7900HT Fast Real-Time PCR System (Applied Biosystems). Cycle threshold (Ct) values were normalized to GAPDH.

[2] = test system: EMT regulators and adhesion factors in MIA PaCa-2 pancreatic cancer cell line; assay: EMT related gene expression by qPCR in MIA PaCa-2; assay type: cell-based; details: MIA PaCa-2, vs empty vector
Text: as §1, §2

[3] = test system: EMT regulators and adhesion factors in BxPC-3 pancreatic cancer cell line; assay: EMT related gene expression by qPCR in BxPC-3; assay type: cell-based; details: BxPC-3, vs empty vector
Text: as §1, §2

[4] = test system: EMT regulators, adhesion factors and METALLOPROTEINASE-2 in murine pancreatic cancer associated fibroblasts (mCAFs); assay: EMT related gene expression by qPCR in mCAFs; assay type: cell-based; details: vs empty vector
Method: (§3) FIG. 16. Overexpression of the micropeptide of SEQ ID NO: 2 induces loss of mesenchymal identity. mRNA levels of the indicated genes were measured by qPCR in mCAFs (A-B) cells. Values are relative to cells expressing the empty vector as a control. *P<0.05; **P<0.01; ***P<0.001 using Student's t-test for statistics. Error bars represent standard error of n=3 technical replicates.
as §2

BxPC-3 cells = assay: Wound healing assay; assay type: cell-based; details: BxPC-3, vs empty vector
Method: (§4) FIG. 17. The micropeptide of SEQ ID NO: 2 impairs migration capability of pancreatic cancer cell lines. Wound healing assay was performed in MIA PaCa-2 (A) and BxPC-3 (B) cells infected with MIDORI or empty vector. Phase contrast images show the wound at the indicated time points after the scratch was performed.
(§5) MIA PaCa-2 and BxPC-3 cells were trypsinized, counted, and 400,000 cells/well were seeded in 6-well plates. Next day, a pipette tip was used to scratch the surface of cell monolayer, forming a wound. An Olympus CeIIR microscope equipped with a Hamamatsu C9100 camera was used to follow the closure of the wound.

MIA PaCa-2 cells = assay: Wound healing assay; assay type: cell-based; details: MIA PaCa-2, vs empty vector
Method: as §4, §5

BxPC-3 cell line = assay: Invasion assay (Boyden chamber, Matrigel); assay type: cell-based; details: BxPC-3, 24 hours after seeding, vs empty vector
Method: (§6) FIG. 18. Expression of the micropeptide of SEQ ID NO: 2 impairs cell invasion in pancreatic cancer cells. (A) Invasion of BxPC-3 cells transduced with micropeptide of SEQ ID NO: 2 or empty vector across matrigel-covered inserts. Representative pictures of invading cells 24 hours after seeding. (B) Relative number of invading cells. Bars represent the average of two independent experiments±SD (n=2), as relative to invading cells in the empty vector conditions. * p<0.05, using Student's t-test.
(§7) BxPC-3, MDA-MB-231, A549 and H10 cell lines were trypsinized, counted, and 20.000 cells/well were seeded in triplicate in a Corning® cell culture insert (Boyden chamber) in which the porous membrane is coated with a layer of Matrigel® to mimic an extra cellular matrix (ECM). Cells were allowed to invade through the coated membrane for 24 hours in the cell incubator at 37° C. After the incubation time, culture inserts were fixed in methanol 5 minutes at RT and stained using Crystal Violet 20 minutes at RT. The excess of Crystal Violet staining was removed washing with PBS and pictures of the chambers were taken using an Olympus CeIIR microscope. Invading cells were counted using ImageJ and fold change was calculated normalizing to the control.

[5] = test system: PDAC pancreatic cancer cells co-cultured with CAFs; assay: CAFs pro-invasive activity, co-culture with PDAC cells in Matrigel coated inserts; assay type: cell-based, mice; details: micropeptide expressed in CAFs in bottom compartment, PDAC cells co-cultured 24 h
Method: FIG. 19. Expression of the micropeptide of SEQ ID NO: 2 reduces pro-tumoral activity of mCAFs cells. (A) Invasion of WT PDAC pancreatic cancer cells across matrigel-covered inserts where mCAFs expessing the micropeptide of SEQ ID NO: 2 or empty vector were seeded in the bottom compartment of the Boyden chambers. Representative pictures of invading cells 24 hours after seeding. (B) Relative number of invading cells.±SD (n=3 technical replicates), as relative to invading cells in the empty vector conditions.
BxPC-3 and A549 cell lines were cultured in RPMI supplemented with 10% of FBS and penicillin-streptomycin. Patient derived-H10 skin squamous cell carcinoma cell line was cultured in DMEM-F12 supplemented with B27 and penicillin-streptomycin. Cancer associated fibroblasts (CAFs) and PDAC cell lines were derived from LSL^−KrasG12D/+;LSL-Trp53R172H/+;Pdx-1-Cre mice and cultured in DMEM-F12 supplemented with 10% FBS and penicillin-streptomycin. All the other cell lines were cultured in DMEM supplemented with 10% of FBS and penicillin streptomycin. Cultures were routinely tested for mycoplasma and were always negative.
In order to test CAFs pro-invasive activity, 40.000 CAFs/well were seeded in 24-well plates. 48 h later, PDAC cells were trypsinized, counted, and 20.000 cells were seeded in the upper compartment of Matrigel® coated inserts that were placed over CAFs containing wells. […]

[6] = test system: SLUG, ZEB1, ZEB2, VIMENTIN, E-CADHERIN and CYTOKERATIN-5 in MDA-MB-231; assay: Mesenchymal and epithelial gene expression by qPCR in MDA-MB-231; assay type: cell-based, human; details: MDA-MB-231, vs empty vector
Method: as §3, with “21.” for “16.”, “MDA-MB-231 cell line.” for “mCAFs (A-B) cells.”
as §2

[7] = test system: MDA-MB-231 breast cancer cell line; assay: Invasion assay (Boyden chamber, Matrigel); assay type: cell-based, human; details: MDA-MB-231, 24 hours after seeding, vs empty vector
Method: as §6, with “22.” for “18.”, “reduces” for “impairs”, “of breast” for “in pancreatic”, “MDA-MB-231 breast cancer” for “BxPC-3”, “cells±SD (n=3 technical replicates),” for “cells. Bars represent the average of two independent experiments±SD (n=2),”
as §7

A549, human lung cancer = assay: Cell death after retroviral overexpression (phase contrast images); assay type: cell-based
Text: (§8) FIG. 23. Overexpression of the micropeptide of SEQ ID NO: 3 in cancer cell lines. (A) Analysis of SEQ ID NO: 3 overexpression by qPCR in A459 cells. (B) Detection of SEQ ID NO: 3 micropeptide expression in A459 cells by Western blot. (C) Phase contrast images of the indicated cell lines after SEQ ID NO: 3 overexpression.

[8] = test system: HCT116, human colorectal cancer; assay: as above; assay type: cell-based
Text: as §8

p21 [9] = assay: p21 expression by qPCR in A549; assay type: cell-based, human; details: A459 cells
Method: (§9) FIG. 24. Overexpression of the micropeptide of SEQ ID NO: 3 induces p21 upregulation and a pro-apoptotic program (A) qPCR analysis of p21 expression in HCT116 and A549 cancer cell lines upon SEQ ID NO: 3 overexpression. (B) Western blot analysis of p21 protein in A549 SEQ ID NO: 3-overexpressing cells. Cells treated with Nutlin-3 (10 μM) were used as positive control for p21 upregulation. (C) qPCR analysis of the indicated apoptosis-related genes in SEQ ID NO: 3-overexpressing HCT116 cells.
as §2

p21 [10] = assay: p21 expression by qPCR in HCT116; assay type: cell-based, human; details: HCT116 cells
Method: as §9, §2

p21 protein = p21 protein by Western blot in A549; assay type: cell-based, human
Method: as §9
Cells pellets (4-5*10^6 cells) were homogenized in medium-salt lysis buffer (150 mM NaCl, 50 mM Tris pH 8, 1% NP40 and protein inhibitors cocktail). 50 μg of protein was loaded per lane in a 12% acrylamide gel and electrophoresed in Tris-Glycine SDS Running Buffer. The following antibodies were used: Anti-HA-Tag (Abcam, 1:5000), Anti-p53 (Santa Cruz, 1:1000), Anti-p21 (Thermo Fisher, 1:1000), Anti-GAPDH (Thermo Fisher, 1:5000).

BAX, BAK and BCL-2 = assay: Apoptosis-related gene expression by qPCR in HCT116; assay type: cell-based, human; details: HCT116 colorectal cancer cell line
Method: as §9, §2

Molecule	expression of EMT regulators SNAIL, SLUG, ZEB1, ZEB2, TWIST1 and VIMENTIN (if expressed) and adhesion factors COLLAGEN I, COLLAGEN IV, CD44 and FIBRONECTIN [1]	expression of EMT regulators SNAIL, SLUG, ZEB1, ZEB2, TWIST1 and VIMENTIN (if expressed) and adhesion factors COLLAGEN I, COLLAGEN IV, CD44 and FIBRONECTIN [2]	expression of EMT regulators SNAIL, SLUG, ZEB1, ZEB2, TWIST1 and VIMENTIN (if expressed) and adhesion factors COLLAGEN I, COLLAGEN IV, CD44 and FIBRONECTIN [3]	expression of EMT regulators SNAIL, SLUG, ZEB1, ZEB2, TWIST1 and VIMENTIN (if expressed) and adhesion factors COLLAGEN I, COLLAGEN IV, CD44 and FIBRONECTIN [4]	expression of METALLOPROTEINASE-2 [4]	migration capability in wound healing assays (BxPC-3 cells)	migration capability in wound healing assays (MIA PaCa-2 cells)	invasion (BxPC-3 cell line)	pancreatic cancer cell invasion (non-cell autonomous) [5]	expression of epithelial markers E-CADHERIN and CYTOKERATIN-5 [6]	expression of the EMT regulators SLUG, ZEB1, ZEB2 and VIMENTIN [6]	invasion capability [7]	cell death (A549, human lung cancer)	cell death [8]	p21 expression (qPCR) (p21 [9])	p21 expression (qPCR) (p21 [10])	p21 protein levels (p21 protein)	expression of the antiapoptotic gene BCL-2 (BAX, BAK and BCL-2)	expression of the pro-apoptotic genes BAX and BAK (BAX, BAK and BCL-2)
SEQ ID NO: 2: 64-amino acid micropeptide encoded by ZEB2 antisense 1 (ZEB2AS1) long non-coding RNA (protein, listed as Homo sapiens) MVRRKSMKKPRSVGEKKVEAKKQLPEQTVQKPRQECREAGPLFLQSRRETRDPETRATYLCGEG	downregulation	downregulation	downregulation	downregulation	downregulation	decreased migration capability	decreased migration capability	decreased invasion	reduces pancreatic cancer cell invasion	upregulation	downregulation	decreased invasion capability	–	–	–	–	–	–	–
SEQ ID NO: 3: 78-amino acid micropeptide encoded by the first exon of LINC0086 lncRNA (protein, listed as Homo sapiens) MAASAALSAAAAAAALSGLAVRLSRSAAARGSYGAFCKGLTRTLLTFFDLAWRLRMNFPYFYIVASVMLNVRLQVRIE	–	–	–	–	–	–	–	–	–	–	–	–	massive cell death	massive cell death	substantial p21 upregulation	substantial p21 upregulation	increased p21 protein levels	downregulation	upregulation
